Experimental data from US20210196823A1, “Methods of Treating Metabolic Disease” (Pfizer Inc., priority 2018, published 2021).

Legend:
[1] = tested on: SMAD1/5/8 phosphorylation in Huh7 cells; experiment: Western blot of SMAD1/5/8 phosphorylation in Huh7 cells; format: cell-based
Experimental: (d) ERFE effects on BMP/SMAD signalling measured by SMAD 1/5/8 phosphorylation: To confirm the suppression of BMP/SMAD signalling, we analysed phosphorylation of SMAD1/5/8, required to transduce the signal leading to HAMP upregulation. Analysis was carried out by Western blot according to the following methodology: Cells were lysed at 4° C. using RIPA buffer (Thermo Scientific) containing protease/phosphatase inhibitor (Cell Signalling). Lysates were denatured at 95° C. and separated on a 10% SDS polyacrylamide gel (Bio-Rad), following the manufacturer's instruction. Protein sizes were estimated by using the Novex Sharp Pre-Stained Protein Ladder (life technologies). Protein was transferred to a nitrocellulose membrane, then blocked with milk/TBS for 1 h. Antibodies used were anti-P-SMAD 1/5 (S463s/465)/9(S465/467) (Cell signalling 13820S 1:500), anti-Smad1 (Cell Signalling 6944S 1:500), anti-β-actin-peroxidase (Sigma A3854 1:10 000), and Anti-rabbit IgG HRP conjugated (RnD systems HAP008 1:5000). […] In this case Huh7 cells were treated with mouse ERFE (10 μg/ml) or BMP6 and LDN, a small molecule inhibitor of BMPs, (100 nM), alone or in combination, for 30 min and pSMAD/SMAD ratios values were calculated by densitometry. Erythroferrone caused a decrease in SMAD phosphorylation relative to non-treated cells (FIG. 3D).

C2C12 Bre-Luc cells = experiment: BMP/SMAD signalling output in C2C12 Bre-Luc cells; format: cell-based; conditions: 24 h
Experimental: As HAMP can be stimulated by a variety of ligands, we further tested the effect of ERFE in cells treated with various BMPs by measuring BMP/SMAD signalling output in C2C12 Bre-Luc cells. C2C12 Bre-Luc cells were treated with 2 nM of BMP in combination with a gradient of mouse ERFE concentrations (7.5 pM to 0.5 μM) for 24 h, and luminescence measured in each well. […] Analogous data confirmed suppression of HAMP and ID1 in cells treated with ERFE and BMP 2/6, BMP5, BMP6 and BMP7, FIG. 3F.
The inhibitory effect of EFE on selected BMPs was tested in-vitro in three different cell types, C2C12, Huh7 and HepG2. Huh7 (FIG. 3G, 3H) and HepG2 (FIGS. 3J, 3K) cells were treated with 2 nM of BMPs, alone or in combination with 10 μg/ml of mouse ERFE, in serum-free media, and analysed 6 h after treatment. Gene expression of HAMP and ID1 was measured by qRT-PCR. Results expressed as fold change relative to non-treated cells from 3 independent experiments. Statistical significance was analysed for each pair of BMP treatments. (*p<0.05, **p<0.01, ***p<0.001, ****p<0.0001, Student's t test). Additionally we tested the effect of ERFE in cells treated with various BMPs by measuring BMP/SMAD signalling output in C2C12 Bre-Luc cells (FIG. 3E). C2C12 Bre-Luc cells were treated with 2 nM of BMP in combination with a gradient of mouse ERFE concentrations (7.5 pM to 0.5 μM) for 24 h, and luminescence measured in each well.

[2] = tested on: BMP-target genes in the liver; experiment: Short-term ERFE treatment in WT mice: liver BMP-target genes, serum and liver iron; format: in vivo; conditions: 200 μg i.v., 3 h
Text: (a) Animal studies: Wild-type male C57BL/6 mice were purchased from Harlan Laboratories, UK. Embryos from Fam132b+/− mice on a mixed Sv129/C57BL/6 background were obtained from the Mutant Mouse Regional Resource Center (MMRRC) at UC Davis (strain 66; 12955-Fam132btm1Lex/Mmucd, ID MMRRC:032289-UCD) and backcrossed onto C57BL/6 background using marker-assisted accelerated backcrossing. Heterozygote pairs were mated to generate homozygous animals from which knockout and wild-type colonies were maintained. Animals were housed in individually ventilated cages in the Department of Biomedical Services, University of Oxford, and provided access to normal chow (163 ppm of iron, Special Diets Services 801700) and water ad libitum. All experiments were performed in 9-13 weeks old male mice. For EPO treatments, mice were injected intraperitoneally with 200 IU recombinant human EPO (Bio-Rad) in water or vehicle (water) daily for three consecutive days and culled 24 h after the last EPO injection. For ERFE treatments, mice were injected intravenously with 200 μg of recombinant mouse ERFE or vehicle (saline) and culled 3 h after treatment. Mice were euthanized in increasing CO2 concentrations.
(b) Serum iron analysis: Blood was taken by cardiac puncture immediately after euthanising mice and collected in BD EDTA or SST (serum) Microtainer tubes. Serum was prepared by centrifugation of clotted blood at 8000×g for 3 minutes in BD Microtainer SST tubes (Beckton Dickinson) and used for serum iron quantification using a Abbott Architect c16000 automated analyzer (Abbott Laboratories).
(c) Tissue non-heme iron measurement: Liver tissues were dried for 4 hours at 100° C., weighed and digested in 10% tricholoroacetic acid (Sigma)/30% hydrochloric acid (Sigma) for 20 hours at 65° C. A standard curve was generated using a dilution series of ferric ammonium citrate (Sigma) in the 10% (w/v) trichloroacetic acid/30% hydrochloric acid mixture. Non-heme iron content was determined colorimetrically by measuring absorbance at 535 nm following reaction with chromogen reagent containing 0.1% (w/v) bathophenoldisulphonic acid (Sigma)/0.8% thioglycolic acid (Sigma).
Three hours after the injections, mice were culled and serum and liver iron measured. […] Additionally, three hours after the injections, mice were culled and the liver harvested for analysis of liver gene expression for BMP-target genes.

B1: mouse ERFE: recombinant mouse erythroferrone (SEQ ID NO: 2); monoFC-muErfe is a monomeric FC murine ERFE fusion (protein, listed as Mus musculus)
chain: MASRRPVGARTLLACASLLAAMGLGVPESAEPVGTHARPQPPGAELPAPPANSPPEPIAHAHSVDPRDAWMLFVKQSDKGINSKRRSKARRLKLGLPGPPGPPGPQGPPGPFIPSEVLLKEFQLLLKGAVRQRESHLEHCTRDLPASGSPSRVPAAQELDSQDPGALLALLAATLAQGPRAPRVEAAFHCRLRRDVQVDRRALHELGIYYLPEVEGAFHRGPGLNLTSGQYTAPVAGFYALAATLHVALTEQPRKGPTRPRDRLRLLICIQSLCQHNASLETVMGLENSSELFISVNGVLYLQAGHYSVFLDNASGSSLTVRSGSHFSAILLGL
With B1 the “SMAD phosphorylation after BMP6 stimulation” value ([1]; Huh7, mouse ERFE 10 μg/ml with BMP6, 30 min) was “blunted the increase”, the “SMAD 1/5/8 phosphorylation relative to non-treated cells” value ([1]; Huh7, mouse ERFE 10 μg/ml, 30 min, baseline) was “decrease” and the “BMP2 activity (luminescence)” value (C2C12 Bre-Luc cells; 2 nM BMP2, mouse ERFE 7.5 pM to 0.5 μM) was “no effect”. The “BMP4 activity (luminescence)” value (C2C12 Bre-Luc cells; 2 nM BMP4, mouse ERFE 7.5 pM to 0.5 μM) was “no effect”, the “activation of BMP signalling by BMP5 (luminescence)” value (C2C12 Bre-Luc cells; 2 nM BMP5, mouse ERFE 7.5 pM to 0.5 μM) was “dose-dependent decrease” and the “activation of BMP signalling by BMP6 (luminescence)” value (C2C12 Bre-Luc cells; 2 nM BMP6, mouse ERFE 7.5 pM to 0.5 μM) was “dose-dependent decrease”. For the same molecule, the “activation of BMP signalling by BMP7 (luminescence)” value (C2C12 Bre-Luc cells; 2 nM BMP7, mouse ERFE 7.5 pM to 0.5 μM) was “dose-dependent decrease”, the “BMP9 activity (luminescence)” value (C2C12 Bre-Luc cells; 2 nM BMP9, mouse ERFE 7.5 pM to 0.5 μM) was “no effect” and the liver iron [2] was “not affected”. The serum iron [2] was “not affected”, the serum hepcidin levels ([2]; in comparison to the control) was “reduced” and the “liver expression of Hamp and BMP-target genes” value ([2]; vs inactive control Clip huERFE) was “significantly reduced”.
